These are literature values, as cited in patent US9624506B2, “Glyphosate resistance enhancement” (Keygene N.V., priority 2011, dated 2017).

For data set [1] the following is noted: Salmonella EPSPS; cited from earlier work.
The conditions of data set [2]: Salmonella EPSPS; cited from earlier work. This is another data set of the same source.

B1: T42M: T42M mutation in Salmonella EPSPS enzyme (protein, UniProt P07637 1-427, looked up, variant T42M)
3-phosphoshikimate …: MESLTLQPIARVDGAINLPGSKSVSNRALLLAALACGKTALMNLLDSDDVRHMLNALSALGINYTLSADRTRCDITGNGGALRAPGALELFLGNAGTAMRPLAAALCLGQNEIVLTGEPRMKERPIGHLVDSLRQGGANIDYLEQENYPPLRLRGGFTGGDIEVDGSVSSQFLTALLMTAPLAPKDTIIRVKGELVSKPYIDITLNLMKTFGVEIANHHYQQFVVKGGQQYHSPGRYLVEGDASSASYFLAAGAIKGGTVKVTGIGRKSMQGDIRFADVLEKMGATITWGDDFIACTRGELHAIDMDMNHIPDAAMTIATTALFAKGTTTLRNIYNWRVKETDRLFAMATELRKVGAEVEEGHDYIRITPPAKLQHADIGTYNDHRMAMCFSLVALSDTPVTILDPKCTAKTFPDYFEQLARMSTPA
Consider B1, for which the “higher tolerance for glyphosate” value in data set [1] is listed as 26 fold. Moreover, the “lower affinity for its normal substrate (PEP)” value in data set [2] is listed as 25 fold.
